Measured values from patent publication US20250026849A1 (ARCELLX, published 2025).

Legend:
[1] = target: T1, BCMA (Homo sapiens (Human), UniProt Q02223 1-54, limits assumed); test: ELISA, format not described; parameters: unit not given here
T1 sequence: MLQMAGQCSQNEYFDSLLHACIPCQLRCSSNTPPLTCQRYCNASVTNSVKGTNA

[2] = target: T2, P26 (human, UniProt P02771 381-609, limits assumed); test: ELISA, format not described; parameters: unit not given here
T2 construct: also called AFP p26
T2 sequence: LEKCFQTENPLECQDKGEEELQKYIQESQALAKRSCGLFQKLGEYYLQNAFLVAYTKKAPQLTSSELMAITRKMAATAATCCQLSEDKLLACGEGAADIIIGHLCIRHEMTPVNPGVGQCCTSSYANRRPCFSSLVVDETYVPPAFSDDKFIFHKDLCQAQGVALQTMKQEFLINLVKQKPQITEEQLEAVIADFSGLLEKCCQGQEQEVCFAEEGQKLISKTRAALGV

ELISA_avg [1]	ELISA_avg [2]	Binder
10.7		D-domain SEQ ID NO: 339 (designed binder) MGSWYGFKWYLATIKKHLEALGGSEAELALFETEIATFELWLQDYKGKGNPEVEALRKEAAAIRDELQAYRHN
11.5		D-domain SEQ ID NO: 61 (designed binder) MGSWNEFAWRLIAINQRLWALGGSEAELAAFEKEIAAFESELQAYKGKGNPEVESLRHFAANIRNDLQAYRHN
8.55		D-domain SEQ ID NO: 62 (designed binder) MGSWTEFAWRLIAIDQRLMALGGSEAELAAFEKEIAAFESELQAYKGKGNPEVEILRELAAEIRFHLQAYRHN
12.9		D-domain SEQ ID NO: 63 (designed binder) MGSWSEFMNRLDAITYRLVALGGSEAELAAFEKEIAAFESELQAYKGKGNPEVELLRHYAAQIRDSLQAYRHN
10.8		D-domain SEQ ID NO: 65 (designed binder) MGSWAEFMDRLDAITYRLWALGGSEAELAAFEKEIAAFESELQAYKGKGNPEVEELRGYAAIIRSELQAYRHN
20		D-domain SEQ ID NO: 67 (designed binder) MGSWIEFQQRLDAIFYRLYALGGSEAELAAFEKEIAAFESELQAYKGKGNPEVENLRDMAAIIRKQLQAYRHN
14.1		D-domain SEQ ID NO: 68 (designed binder) MGSWYEFQSRLDAIFYRLFALGGSEAELAAFEKEIAAFESELQAYKGKGNPEVEKLREAAASIRTQLQAYRHN
10.2		D-domain SEQ ID NO: 69 (designed binder) MGSWSEFIDRLDAITYRLFALGGSEAELAAFEKEIAAFESELQAYKGKGNPEVENLRWYAGVIREQLQAYRHN
5.98		D-domain SEQ ID NO: 70 (designed binder) MGSWSEFYDRLYAINQRLFALGGSEAELAAFEKEIAAFESELQAYKGKGNPEVEDLRWYAAFIRAQLQAYRHN
14.7		D-domain SEQ ID NO: 71 (designed binder) MGSWYEFYDRLDAIVHRLDALGGSEAELAAFEKEIAAFESELQAYKGKGNPEVENLRWYAAMIRVRLQAYRHN
4.05		D-domain SEQ ID NO: 74 (designed binder) MGSWFEFQHRLEAISMRLHALGGSEAELAAFEKEIAAFESELQAYKGKGNPEVEELRWQAAYIRVVLQAYRHN
3.11		D-domain SEQ ID NO: 76 (designed binder) MGSWEEFQYRLGAIAARLQALGGSEAELAAFEKEIAAFESELQAYKGKGNPEVEELRWQAAMIRFMLQAYRHN
14.2		D-domain SEQ ID NO: 77 (designed binder) MGSWYEFQVRLQAISWRLKALGGSEAELAAFEKEIAAFESELQAYKGKGNHEVEELRIQAALIRVMLQAYRHN
7.58		D-domain SEQ ID NO: 98 (designed binder) MGSWSEFRGRLQAIHSRLNALGGSEAELAAFEKEIAAFESELQAYKGKGNPEVEELRYSAAIIRIYLQAYRHN
9.76		D-domain SEQ ID NO: 102 (designed binder) MGSWVEFYDRLAAIRKRLYALGGSEAELAAFEKEIAAFESELQAYKGKGNPEVEELRFRAALIRIWLQAYRHN
18.7		D-domain SEQ ID NO: 105 (designed binder) MGSWIEFSHRLEAIVDRLGALGGSEAELAAFEKEIAAFESELQAYKGKGNPEVEELRNTAAIIRVYLQAYRHN
6.3		D-domain SEQ ID NO: 107 (designed binder) MGSWMEFSHRLDAIHERLYALGGSEAELAAFEKEIAAFESELQAYKGKGNPEVEDLRFAAAIIRVQLQAYRHN
4.68		D-domain SEQ ID NO: 109 (designed binder) MGSWYEFQNRLGAINRRLNALGGSEAELAAFEKEIAAFESELQAYKGKGNPEVEELRFEAAIIRVMLQAYRHN
3.31		D-domain SEQ ID NO: 110 (designed binder) MGSWQEFTGRLHAIRHRLEALGGSEAELAAFEKEIAAFESELQAYKGKGNPEVEELRFEAAYIRVWLQAYRHN

Second part, the binder before the results:

Binder	ELISA_avg [1]	ELISA_avg [2]
D-domain SEQ ID NO: 49 (designed binder) MGSWTEFAWRLQAIHQRLQALGGSEAELAAFEKEIAAFESELQAYKGKGNPEVEELRVYAAKIRISLQAYRHN	18.7	
D-domain SEQ ID NO: 44 (designed binder) MGSWYEFSWRLQAIHQRLNALGGSEAELAAFEKEIAAFESELQAYKGKGNPEVEELRAYAAGIRGALQAYRHN	9.49	
D-domain SEQ ID NO: 45 (designed binder) MGSWHEFTWRLIAIQQRLEALGGSEAELAAFEKEIAAFESELQAYKGKGNPEVEELRAYAAGIRHHLQAYRHN	17.1	
D-domain SEQ ID NO: 46 (designed binder) MGSWREFAWRLVAINSRLKALGGSEAELAAFEKEIAAFESELQAYKGKGNPEVEELRHYAASIRDGLQAYRHN	9.66	
D-domain SEQ ID NO: 47 (designed binder) MGSWHEFAWRLQAINQRLNALGGSEAELAAFEKEIAAFESELQAYKGKGNPEVEELRHYAAHIRNGLQAYRHN	13.1	
D-domain SEQ ID NO: 48 (designed binder) MGSWNEFAWRLTAIEQRLMALGGSEAELAAFEKEIAAFESELQAYKGKGNPEVEELRHYAAGIRDNLQAYRHN	18.3	
D-domain SEQ ID NO: 50 (designed binder) MGSWIEFAWRLQAIHQRLDALGGSEAELAAFEKEIAAFESELQAYKGKGNPEVEDLREYAANIRDSLQAYRHN	19	
D-domain SEQ ID NO: 51 (designed binder) MGSWHEFTWRLVAIQQRLQALGGSEAELAAFEKEIAAFESELQAYKGKGNPEVEELRKFAAKIRYELQAYRHN	19.5	
D-domain SEQ ID NO: 52 (designed binder) MGSWHEFTWRLIAIRERLFALGGSEAELAAFEKEIAAFESELQAYKGKGNPEVEELREYAASIRNMLQAYRHN	13	
D-domain SEQ ID NO: 53 (designed binder) MGSWIEFSWRLEAIRQRLQALGGSEAELAAFEKEIAAFESELQAYKGKGNPEVESLRSYAARIRQELQAYRHN	9.92	
D-domain SEQ ID NO: 54 (designed binder) MGSWVEFSWRLEAIRQRLQALGGSEAELAAFEKEIAAFESELQAYKGKGNPEVESLRSYAARIRQELQAYRHN	19.1	
D-domain SEQ ID NO: 55 (designed binder) MGSWVEFSWRLEAIRQRLTALGGSEAELAAFEKEIAAFESELQAYKGKGNPEVEDLRKYAARIRGELQAYRHN	21.3	
D-domain SEQ ID NO: 56 (designed binder) MGSWVEFAWRLTAIDQRLSALGGSEAELAAFEKEIAAFESELQAYKGKGNPEVENLRFYAAKIRSHLQAYRHN	8.43	
D-domain SEQ ID NO: 57 (designed binder) MGSWVEFAWRLEAIKQRLTALGGSEAELAAFEKEIAAFESELQAYKGKGNPEVEELRLYAAKIRRVLQAYRHN	8.9	
D-domain SEQ ID NO: 58 (designed binder) MGSWVEFAWRLTAIHTRLWALGGSEAELAAFEKEIAAFESELQAYKGKGNPEVESLRKYAAKIRKQLQAYRHN	6.08	
D-domain SEQ ID NO: 59 (designed binder) MGSWTEFAWRLEAINQRLQALGGSEAELAAFEKEIAAFESELQAYKGKGKPEVEALRAYAAKIRTRLQAYRHN	15.1	
D-domain SEQ ID NO: 60 (designed binder) MGSWSEFAWRLEAIHQRLSALGGSEAELAAFEKEIAAFESELQAYKGKGNPEVESLRLFAAQIRENLQAYRHN	18	
D-domain SEQ ID NO: 64 (designed binder) MGSWTEFMERLDAISYRLWALGGSEAELAAFEKEIAAFESELQAYKGKGNPEVEVLRDYAAIIRNSLQAYRHN	9.87	
D-domain SEQ ID NO: 66 (designed binder) MGSWIEFQERLDAIFYRLHALGGSEAELAAFEKEIAAFESELQAYKGKGNPEVEDLRDAAATIRRQLQAYRHN	18.6	
D-domain SEQ ID NO: 75 (designed binder) MGSWVEFQSRLEAIATRLRALGGSEAELAAFEKEIAAFESELQAYKGKGNPEVEELRWQAAWIRMMLQAYRHN	18	
D domain SEQ ID NO: 851 (designed binder) MGSWHEFYDRLDAIYFRLWALGGSEAELAAFEKEIAAFESELQAYKGKGNPEVELLRLLAAEIRKELQAYRHN		9.6
D domain SEQ ID NO: 854 (designed binder) MGSWVEFSGRLIAIDNRLWALGGSEAELAAFEKEIAAFESELQAYKGKGNPEVEYLRMWAAEIRYILQAYRHN		5.28
D-domain SEQ ID NO: 106 (designed binder) MGSWEEFSDRLEAILRRLDALGGSEAELAAFEKEIAAFESELQAYKGKGNPEVEDLRFAAAIIRVQLQAYRHN	9.08	
D-domain SEQ ID NO: 108 (designed binder) MGSWSEFQQRLHAIRTRLYALGGSEAELAAFEKEIAAFESELQAYKGKGNPEVEELRFEAAIIRVMLQAYRHN	11.6	
